One molecule from article PMC9088798, “An Approach to Derive Functional Peptide Inhibitors of Transcription Factor Activity” (JACS Au, 2022) can be followed below.

This data set deals with WT-mDHFR. Kind of data set: DHFR activity assay (NADPH turnover at 340 nm), WT-mDHFR. The class given is biochemical, murine. The note with it: 100 nM WT-mDHFR, 60 µM NADPH, 50 µM DHF, no inhibitor; absorbance 340 nm; first 2.5 min, blank subtracted; average of triplicate experiments, one SD. How it is done: (A) Fifteen TRE sites were introduced into the mDHFR gene (2 silent and 13 substitutions) to allow for a cJun-induced transcriptional block. […] Change in absorbance at 340 nm was measured to determine the rate of NADPH turnover by (B) WT-mDHFR and (C) TRE-mDHFR with or without the substrate DHF. […] Specific activity was calculated from the linear initial rate (first 2.5 min for WT-mDHFR, first 10 min for TRE-mDHFR; +NADPH only reaction blank subtracted). Data are averages from triplicate experiments with errors shown as one standard deviation.
Jupiter Proteo column (4-μm particle size, 90 Å pore size, 250 × 10 mm; Phenomenex) using a water:acetonitrile gradient (0.1% TFA). Peptides without a SUMO tag, were concentrated after Histrap elution and HPLC purified. […]
or Mtx (1 µM in reaction). Reactions were initiated by the addition of DHF (50 µM in reaction plus a blank reaction with no DHF) and the absorbance at 340 nm of samples was measured using a Varian Cary 50 UV-Vis spectrophotometer. The specific activity (∆OD/minsample― ∆OD/minblank) was calculated using the following equation. Specific activity = 12.3× mg protein Library Construction and TBS Assay: Library inserts were produced using PCR fill-in reactions from synthesised primers (Sigma) with degenerate codons at the desired positions to produce the correct residue options. […]

B1: WT-mDHFR: wild-type murine dihydrofolate reductase, 6xHis-tagged (protein, UniProt P00375 2-187, looked up)
Dihydrofolate reductase: VRPLNCIVAVSQNMGIGKNGDLPWPPLRNEFKYFQRMTTTSSVEGKQNLVIMGRKTWFSIPEKNRPLKDRINIVLSRELKEPPRGAHFLAKSLDDALRLIEQPELASKVDMVWIVGGSSVYQEAMNQPGHLRLFVTRIMQEFESDTFFPEIDLGKYKLLPEYPGVLSEVQEEKGIKYKFEVYEKKD
modifications: 6xHis tag
notes: wild-type murine dihydrofolate reductase, 6xHis-tagged
On to B1, for which the “Specific activity, +NADPH+DHF” value stood at 0.263 ± 0.002 μmol / min / mg protein.
